This is an account of results in US20160200814A1, “IMMUNORECEPTOR MODULATION FOR TREATING CANCER AND VIRAL INFECTIONS” (THE COUNCIL OF THE QUEENSLAND INSTITUTE OF MEDICAL RESEARCH, priority 2013, published 2016).

The target of the assay is T1, CD155 at the cell surface of B16F10 (Mus musculus, UniProt F6V4I7).
T1 construct: at the cell surface of B16F10 cells; endogenous in cells; host or cells: B16F10 melanoma cells
T1 sequence (F6V4I7 29-408): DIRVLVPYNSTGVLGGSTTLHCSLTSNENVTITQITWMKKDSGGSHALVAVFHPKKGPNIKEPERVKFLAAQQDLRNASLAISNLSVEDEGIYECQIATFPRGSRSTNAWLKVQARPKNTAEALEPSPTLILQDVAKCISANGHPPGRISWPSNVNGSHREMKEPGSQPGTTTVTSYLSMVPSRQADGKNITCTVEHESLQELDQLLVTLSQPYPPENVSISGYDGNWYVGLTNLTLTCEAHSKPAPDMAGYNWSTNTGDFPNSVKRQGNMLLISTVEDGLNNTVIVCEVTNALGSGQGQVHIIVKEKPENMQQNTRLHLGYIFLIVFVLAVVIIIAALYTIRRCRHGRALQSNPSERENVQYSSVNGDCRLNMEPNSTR
Description: Binding of DNAM-1-Fc (AF-647) at the cell surface of B16F10 cells, flow cytometry. Particulars: FIG. 3c; DNAM-1-Fc AF-647 0.5-20 μg/ml; competitor 50 μg/ml; versus control Ig. An excerpt: FIG. 3: CD96 limits NK cell-dependent tumor immunosurveillance. a, b. CD96 and DNAM-1 have an opposite role in the control of B16F10 metastasis. a. 2×10^5 B16F10 cells were intravenously injected into WT, CD96^−/−, DNAM-1^−/− and DNAM-1^−/− CD96^−/− mice and metastatic burden was quantified in the lungs after 14 days. Representative experiment out of 3. b. Pictures showing the lung of WT and CD96^−/− mice two weeks after the injection of 2×10^5 and 5×10^5 B16F10 cells. Representative experiment out of two. c. […] The binding of DNAM-1-Fc labeled with AF-647 (0.5-20 μg/ml) at the cell surface of B16F10 cells was analyzed in the presence of 50 μg/ml of control Ig, recombinant CD96 or TIGIT-Fc. The FACS histograms and the mean±SD of triplicate wells from one representative experiment out of 3 are shown. d. A 4 hr^51 Cr release assay was performed between B16F10 cells and IL-2-activated NK cells from WT, DNAM-1^−/− and CD96^−/− mice at the indicated effector target ratios. Solid circles represent WT NK cells, open circles represent CD96^−/− NK cells and solid squares represents DNAM-1^−/− NK cells. e-h. CD96 and DNAM-1 have an opposite role in the immunosurveillance of MCA induced fibrosarcoma mediated by NK cells. e-h Groups of 15-30 male, WT, DNAM-1^−/− and CD96^−/− and DNAM-1^−/− CD96^−/− mice were injected with MCA (100 μg/mouse). […]
On the technique in general: A flow cytometer gives signals particle by particle.

B1: recombinant CD96: recombinant CD96 protein used at 50 μg/ml as competitor of DNAM-1-Fc binding (protein, UniProt P40200 22-585, looked up)
T-cell surface protein tactile: VWEKTVNTEENVYATLGSDVNLTCQTQTVGFFVQMQWSKVTNKIDLIAVYHPQYGFYCAYGRPCESLVTFTETPENGSKWTLHLRNMSCSVSGRYECMLVLYPEGIQTKIYNLLIQTHVTADEWNSNHTIEIEINQTLEIPCFQNSSSKISSEFTYAWSVENSSTDSWVLLSKGIKEDNGTQETLISQNHLISNSTLLKDRVKLGTDYRLHLSPVQIFDDGRKFSCHIRVGPNKILRSSTTVKVFAKPEIPVIVENNSTDVLVERRFTCLLKNVFPKANITWFIDGSFLHDEKEGIYITNEERKGKDGFLELKSVLTRVHSNKPAQSDNLTIWCMALSPVPGNKVWNISSEKITFLLGSEISSTDPPLSVTESTLDTQPSPASSVSPARYPATSSVTLVDVSALRPNTTPQPSNSSMTTRGFNYPWTSSGTDTKKSVSRIPSETYSSSPSGAGSTLHDNVFTSTARAFSEVPTTANGSTKTNHVHITGIVVNKPKDGMSWPVIVAALLFCCMILFGLGVRKWCQYQKEIMERPPPFKPPPPPIKYTCIQEPNESDLPYHEMETL
As for B1, the “competition with DNAM-1-Fc binding to CD155” value is recorded as “compete with DNAM-1 for the binding of CD155 at the cell surface of B16F10”.
